# Reference: ChEMBL document CHEMBL2073963, “Transport of methotrexate (MTX) and folates by multidrug resistance protein (MRP) 3 and MRP1: effect of polyglutamylation on MTX transport” (Cancer Res, 2001)
# B1: Multidrug resistance associated protein (Homo sapiens), Q96QA9 (protein)
# chain: MDALCGSGELGSKFWDSNLSVHTENPDLTPCFQNSLLAWVPCIYLWVALPCYLLYLRHHCRGYIILSHLSKLKMVLGVLLWCVSWADLFYSFHGLVHGRAPAPVFFVTPLVVGVTMLLATLLIQYERLQGVQSSGVLIIFWFLCVVCAIVPFRSKILLAKAEGEISDPFRFTTFYIHFALVLSALILACFREKPPFFSAKNVDPNPYPETSAGFLSRLFFWWFTKMAIYGYRHPLEEKDLWSLKEEDRSQMVVQQLLEAWRKQEKQTARHKASAAPGKNASGEDEVLLGARPRPRKPSFLKALLATFGSSFLISACFKLIQDLLSFINPQLLSILIRFISNPMAPSWWGFLVAGLMFLCSMMQSLILQHYYHYIFVTGVKFRTGIMGVIYRKALVITNSVKRASTVGEIVNLMSVDAQRFMDLAPFLNLLWSAPLQIILAIYFLWQNLGPSVLAGVAFMVLLIPLNGAVAVKMRAFQVKQMKLKDSRIKLMSEILNGIKVLKLYAWEPSFLKQVEGIRQGELQLLRTAAYLHTTTTFTWMCSPFLVTLITLWVYVYVDPNNVLDAEKAFVSVSLFNILRLPLNMLPQLISNLTQASVSLKRIQQFLSQEELDPQSVERKTISPGYAITIHSGTFTWAQDLPPTLHSLDIQVPKGALVAVVGPVGCGKSSLVSALLGEMEKLEGKVHMKGSVAYVPQQAWIQNCTLQENVLFGKALNPKRYQQTLEACALLADLEMLPGGDQTEIGEKGINLSGGQRQRVSLARAVYSDADIFLLDDPLSAVDSHVAKHIFDHVIGPEGVLAGKTRVLVTHGISFLPQTDFIIVLADGQVSEMGPYPALLQRNGSFANFLCNYAPDEDQGHLEDSWTALEGAEDKEALLIEDTLSNHTDLTDNDPVTYVVQKQFMRQLSALSSDGEGQGRPVPRRHLGPSEKVQVTEAKADGALTQEEKAAIGTVELSVFWDYAKAVGLCTTLAICLLYVGQSAAAIGANVWLSAWTNDAMADSRQNNTSLRLGVYAALGILQGFLVMLAAMAMAAGGIQAARVLHQALLHNKIRSPQSFFDTTPSGRILNCFSKDIYVVDEVLAPVILMLLNSFFNAISTLVVIMASTPLFTVVILPLAVLYTLVQRFYAATSRQLKRLESVSRSPIYSHFSETVTGASVIRAYNRSRDFEIISDTKVDANQRSCYPYIISNRWLSIGVEFVGNCVVLFAALFAVIGRSSLNPGLVGLSVSYSLQVTFALNWMIRMMSDLESNIVAVERVKEYSKTETEAPWVVEGSRPPEGWPPRGEVEFRNYSVRYRPGLDLVLRDLSLHVHGGEKVGIVGRTGAGKSSMTLCLFRILEAAKGEIRIDGLNVADIGDPILFSGTLRMNLDPFGSYSEEDIWWALELSHLHTFVSSQPAGLDFQCSEGGENLSVGQRQLVCLARALLRKSRILVLDEATAAIDLETDNLIQATIRTQFDTCTVLTIAHRLNTIMDYTRVLVLDKGVVAEFDSPANLIAARGIFYGMARDAGLA
# B2: Multidrug resistance-associated protein 1 (Homo sapiens) (protein)
# chain: MALRGFCSADGSDPLWDWNVTWNTSNPDFTKCFQNTVLVWVPCFYLWACFPFYFLYLSRHDRGYIQMTPLNKTKTALGFLLWIVCWADLFYSFWERSRGIFLAPVFLVSPTLLGITMLLATFLIQLERRKGVQSSGIMLTFWLVALVCALAILRSKIMTALKEDAQVDLFRDITFYVYFSLLLIQLVLSCFSDRSPLFSETIHDPNPCPESSASFLSRITFWWITGLIVRGYRQPLEGSDLWSLNKEDTSEQVVPVLVKNWKKECAKTRKQPVKVVYSSKDPAQPKESSKVDANEEVEALIVKSPQKEWNPSLFKVLYKTFGPYFLMSFFFKAIHDLMMFSGPQILKLLIKFVNDTKAPDWQGYFYTVLLFVTACLQTLVLHQYFHICFVSGMRIKTAVIGAVYRKALVITNSARKSSTVGEIVNLMSVDAQRFMDLATYINMIWSAPLQVILALYLLWLNLGPSVLAGVAVMVLMVPVNAVMAMKTKTYQVAHMKSKDNRIKLMNEILNGIKVLKLYAWELAFKDKVLAIRQEELKVLKKSAYLSAVGTFTWVCTPFLVALCTFAVYVTIDENNILDAQTAFVSLALFNILRFPLNILPMVISSIVQASVSLKRLRIFLSHEELEPDSIERRPVKDGGGTNSITVRNATFTWARSDPPTLNGITFSIPEGALVAVVGQVGCGKSSLLSALLAEMDKVEGHVAIKGSVAYVPQQAWIQNDSLRENILFGCQLEEPYYRSVIQACALLPDLEILPSGDRTEIGEKGVNLSGGQKQRVSLARAVYSNADIYLFDDPLSAVDAHVGKHIFENVIGPKGMLKNKTRILVTHSMSYLPQVDVIIVMSGGKISEMGSYQELLARDGAFAEFLRTYASTEQEQDAEENGVTGVSGPGKEAKQMENGMLVTDSAGKQLQRQLSSSSSYSGDISRHHNSTAELQKAEAKKEETWKLMEADKAQTGQVKLSVYWDYMKAIGLFISFLSIFLFMCNHVSALASNYWLSLWTDDPIVNGTQEHTKVRLSVYGALGISQGIAVFGYSMAVSIGGILASRCLHVDLLHSILRSPMSFFERTPSGNLVNRFSKELDTVDSMIPEVIKMFMGSLFNVIGACIVILLATPIAAIIIPPLGLIYFFVQRFYVASSRQLKRLESVSRSPVYSHFNETLLGVSVIRAFEEQERFIHQSDLKVDENQKAYYPSIVANRWLAVRLECVGNCIVLFAALFAVISRHSLSAGLVGLSVSYSLQVTTYLNWLVRMSSEMETNIVAVERLKEYSETEKEAPWQIQETAPPSSWPQVGRVEFRNYCLRYREDLDFVLRHINVTINGGEKVGIVGRTGAGKSSLTLGLFRINESAEGEIIIDGINIAKIGLHDLRFKITIIPQDPVLFSGSLRMNLDPFSQYSDEEVWTSLELAHLKDFVSALPDKLDHECAEGGENLSVGQRQLVCLARALLRKTKILVLDEATAAVDLETDDLIQSTIRTQFEDCTVLTIAHRLNTIMDYTRVIVLDKGEIQEYGAPSDLLQQRGLFYSMAKDAGLV
# Assays:
# Assay type in all cases: functional, cell membranes
# [1] = substrate: Nc1nc(=O)c2c([nH]1)NCC(CNc1ccc(C(=O)N[C@@H](CCC(=O)O)C(=O)O)cc1)N2C=O; assay: (§1) TP_TRANSPORTER: uptake in membrane vesicles from MRP3-expressing HEK293 cells; conditions: Membrane vesicle
# [2] = substrate: Nc1nc(=O)c2nc(CNc3ccc(C(=O)N[C@@H](CCC(=O)O)C(=O)O)cc3)cnc2[nH]1; assay: as §1; conditions: Membrane vesicle
# [3] = substrate: CN(Cc1cnc2nc(N)nc(N)c2n1)c1ccc(C(=O)N[C@@H](CCC(=O)O)C(=O)O)cc1; assay: as §1; conditions: Membrane vesicle
# [4] = substrate: CN(Cc1cnc2nc(N)nc(N)c2n1)c1ccc(C(=O)N[C@@H](CCC(=O)O)C(=O)O)cc1; assay: TP_TRANSPORTER: uptake in membrane vesicle from MRP1-expressing NIH3T3 cells
Protein,Km [1] [µM],Km [2] [µM],Km [3] [µM],Km [4] [µM]
B1,1740,1960,620,–
B2,–,–,–,2150
